Test results as given in article PMC2289750 (The Journal of Cell Biology, 1992).

Target: T1, zyxin (chicken, UniProt Q04584 1-542, 125I (radioiodinated using Iodogen))
T1 sequence (looked up): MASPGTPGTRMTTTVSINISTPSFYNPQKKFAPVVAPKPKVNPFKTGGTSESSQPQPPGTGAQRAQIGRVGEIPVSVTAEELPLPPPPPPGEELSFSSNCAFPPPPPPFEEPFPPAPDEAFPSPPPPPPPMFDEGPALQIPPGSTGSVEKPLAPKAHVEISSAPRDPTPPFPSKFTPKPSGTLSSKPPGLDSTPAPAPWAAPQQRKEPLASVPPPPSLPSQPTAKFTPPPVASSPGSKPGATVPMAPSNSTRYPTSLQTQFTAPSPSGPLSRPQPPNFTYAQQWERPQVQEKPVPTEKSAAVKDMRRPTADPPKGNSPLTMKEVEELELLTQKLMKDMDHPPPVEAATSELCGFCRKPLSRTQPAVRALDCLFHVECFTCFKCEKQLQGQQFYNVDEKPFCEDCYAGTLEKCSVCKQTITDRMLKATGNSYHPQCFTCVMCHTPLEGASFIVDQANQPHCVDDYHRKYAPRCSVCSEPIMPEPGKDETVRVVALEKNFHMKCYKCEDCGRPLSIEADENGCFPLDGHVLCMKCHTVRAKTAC
Experiment: far-Western, overlay or dot blot

binding result: binds
B1: chicken Cysteine-Rich Protein (cCRP) (natural protein)
chain: MPNWGGGKKCGVCQKAVYFAEEVQCEGSSFHKSCFLCMVCKKNLDSTTVAVHGDEIYCKSCYGKKYGPKGYGYGMGAGTLSTDKGESLGIKYEEGQSHRPTNPNASRMAQKVGGSDGCPRCGQAVYAAEKVIGAGKSWHKSCFRCAKCGKSLESTTLADKDGEIYCKGCYAKNFGPKGFGFGQGAGALIHSQ
